For test [1], the target named is T1, CPXV14-His (His-tagged recombinant cowpox virus Brighton Red CPXV14) (cowpox virus (Brighton Red strain)). Kind of test: BLI. On the technique in general: In BLI a coated tip is dipped into the sample, and binding shifts an interference pattern.
The target in test [2] is T1, CPXV14-His (His-tagged recombinant …). Kind of test: BLI. This is another data set of the same source.

The values that follow come from publication PMC9521928 (2022).

B1: soluble recombinant murine FcγRIIB (mCD32B) ectodomain (receptor)
chain: THDLPKAVVKLEPPWIQVLKEDTVTLTCEGTHNPGNSSTQWFHNGRSIRSQVQASYTFKATVNDSGEYRCQMEQTRLSDPVDLGVISDWLLLQTPQLVFLEGETITLRCHSWRNKLLNRISFFHNEKSVRYHHYSSNFSIPKANHSHSGDYYCKGSLGRTLHQSKPVTITVQGPKSSRSLP
A word on the koff: it is the first-order rate constant of dissociation. As a reminder, the Kd is the constant that tells how readily two partners part at equilibrium. In the case of B1, the koff in test [1] came out at 0.00198 s⁻¹. In addition, in test [2], the Kd stood at 2.94 nM.
